Data reported in the supplement of paper PMC10201428.
± gives the standard deviation of the averaged measurements.

Legend:
[1] = test system: VchCAST RNA-guided transposition machinery (E. coli BL21(DE3) host, lacZ target); test: relative integration efficiency (T-RL orientation) vs wild-type transposon end (log2 (normalized fold change)); transposon end mutated: right end (5 bp flank + 75 bp right end); higher = more efficient transposition
How it was run: (§1)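 In E. coli BL21(DE3), a T7-driven effector plasmid was paired with a pUC57 mini-transposon donor containing 1549 left-end or 1849 right-end barcoded transposon variants. Cells grew on plates with 0.1 mM IPTG at 37°C for 18 h. Relative integration efficiency was derived from Illumina reads of genomic integration junctions against input plasmids, as a log-transformed output/input barcode fold change normalised to reference barcodes.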

[2] = test system: VchCAST RNA-guided transposition machinery (E. coli BL21(DE3) host, lacZ target); test: relative integration efficiency (T-LR orientation) vs wild-type transposon end (log2 (normalized fold change)); transposon end mutated: right end (5 bp flank + 75 bp right end); higher = more efficient transposition
How it was run: as §1

| Sequence | relative integration efficiency (log2) [1] | relative integration efficiency (log2) [2] |
| --- | --- | --- |
| ACATTTGTTGATACAACCATAAAGTGATATTTACAACCATAAAGTGATATTTATCACAACCATATATTGATATCTCCTCTGATCATAGTCAGACCAACATTGCTACGACCCGTATTCGCACCGACAC | 0.115 ± 0.19 | 0.458 ± 0.14 |
| ACATTTGTTGATACAACCATAAAGTGATATTTACAACCATAAAGTGATATTTATCACACCCATAAATTGATAATTACTCTGATCATAGTCAGACCAACATTGCTACGACCCGTATTCGCACCGACAC | 0.0651 ± 0.0083 | 0.289 ± 0.082 |
| ACATTTGTTGATACAACCATAAAGTGATATTTACAACCATAAAGTGATATTTATCACACCCATAAATTGATATTGCCTCTGATCATAGTCAGACCAACATTGCTACGACCCGTATTCGCACCGACAC | -0.0388 ± 0.082 | -0.0332 ± 0.27 |
| ACATTTGTTGATACAACCATAAAGTGATATTTACAACCATAAAGTGATATTTATCAGTGGGTATTTAACTATAACGCTCTGATCATAGTCAGACCAACATTGCTACGACCCGTATTCGCACCGACAC | -0.497 ± 0.26 | 2.91 ± 0.034 |
| ACATTTGTTGATACAACCATAAAGTGATATTTACAACCATAAGTTGATATTTTTCACAACCATAAAATGATAATTACTCTGATCATAGTCAGACCAACATTGCTACGACCCGTATTCGCACCGACAC | -0.0427 ± 0.12 | 0.217 ± 0.045 |
| ACATTTGTTGATACAACCATAAAGTGATATTTACAACCATAAGTTGATATTTTTCACAACCATAAAGTGATATTTACTCTGATCATAGTCAGACCAACATTGCTACGACCCGTATTCGCACCGACAC | 0.0395 ± 0.16 | 0.0534 ± 0.15 |
| ACATTTGTTGATACAACCATAAAGTGATATTTACAACCATAAGTTGATATTTTTCACAACCATAAGTTGATATTTTCTCTGATCATAGTCAGACCAACATTGCTACGACCCGTATTCGCACCGACAC | 0.36 ± 0.12 | 0.284 ± 0.16 |
| ACATTTGTTGATACAACCATAAAGTGATATTTACAACCATAAGTTGATATTTTTCACAACCATATATTGATATCTCCTCTGATCATAGTCAGACCAACATTGCTACGACCCGTATTCGCACCGACAC | 0.0944 ± 0.13 | 0.346 ± 0.17 |
| ACATTTGTTGATACAACCATAAAGTGATATTTACAACCATAAGTTGATATTTTTCACACCCATAAATTGATAATTACTCTGATCATAGTCAGACCAACATTGCTACGACCCGTATTCGCACCGACAC | -0.192 ± 0.21 | 0.0675 ± 0.11 |
| ACATTTGTTGATACAACCATAAAGTGATATTTACAACCATAAGTTGATATTTTTCACACCCATAAATTGATATTGCCTCTGATCATAGTCAGACCAACATTGCTACGACCCGTATTCGCACCGACAC | -0.0454 ± 0.018 | 0.319 ± 0.19 |
| ACATTTGTTGATACAACCATAAAGTGATATTTACAACCATAAGTTGATATTTTTCAGTGGGTATTTAACTATAACGCTCTGATCATAGTCAGACCAACATTGCTACGACCCGTATTCGCACCGACAC | -0.682 ± 0.18 | 2.73 ± 0.16 |
| ACATTTGTTGATACAACCATAAAGTGATATTTACAACCATATATTGATATCTCTCACAACCATAAAATGATAATTACTCTGATCATAGTCAGACCAACATTGCTACGACCCGTATTCGCACCGACAC | -0.337 ± 0.17 | -0.162 ± 0.091 |
| ACATTTGTTGATACAACCATAAAGTGATATTTACAACCATATATTGATATCTCTCACAACCATAAAGTGATATTTACTCTGATCATAGTCAGACCAACATTGCTACGACCCGTATTCGCACCGACAC | -0.357 ± 0.21 | -0.115 ± 0.5 |
| ACATTTGTTGATACAACCATAAAGTGATATTTACAACCATATATTGATATCTCTCACAACCATAAGTTGATATTTTCTCTGATCATAGTCAGACCAACATTGCTACGACCCGTATTCGCACCGACAC | -0.0164 ± 0.24 | 0.252 ± 0.15 |
| ACATTTGTTGATACAACCATAAAGTGATATTTACAACCATATATTGATATCTCTCACAACCATATATTGATATCTCCTCTGATCATAGTCAGACCAACATTGCTACGACCCGTATTCGCACCGACAC | -0.415 ± 0.28 | 0.32 ± 0.11 |
| ACATTTGTTGATACAACCATAAAGTGATATTTACAACCATATATTGATATCTCTCACACCCATAAATTGATAATTACTCTGATCATAGTCAGACCAACATTGCTACGACCCGTATTCGCACCGACAC | 0.065 ± 0.054 | 0.444 ± 0.39 |
| ACATTTGTTGATACAACCATAAAGTGATATTTACAACCATATATTGATATCTCTCACACCCATAAATTGATATTGCCTCTGATCATAGTCAGACCAACATTGCTACGACCCGTATTCGCACCGACAC | -0.378 ± 0.18 | 0.352 ± 0.16 |
| ACATTTGTTGATACAACCATAAAGTGATATTTACAACCATATATTGATATCTCTCAGTGGGTATTTAACTATAACGCTCTGATCATAGTCAGACCAACATTGCTACGACCCGTATTCGCACCGACAC | -1.32 ± 0.41 | 2.6 ± 0.17 |

| Sequence | relative integration efficiency (log2) [1] | relative integration efficiency (log2) [2] |
| --- | --- | --- |
| ACATTTGTTGATACAACCATAAAGTGATATTTACACCCATAAATTGATAATTATCACAACCATAAAATGATAATTACTCTGATCATAGTCAGACCAACATTGCTACGACCCGTATTCGCACCGACAC | 0.256 ± 0.0071 | -0.112 ± 0.54 |
| ACATTTGTTGATACAACCATAAAGTGATATTTACACCCATAAATTGATAATTATCACAACCATAAAGTGATATTTACTCTGATCATAGTCAGACCAACATTGCTACGACCCGTATTCGCACCGACAC | -0.155 ± 0.041 | -0.0182 ± 0.15 |
| ACATTTGTTGATACAACCATAAAGTGATATTTACACCCATAAATTGATAATTATCACAACCATAAGTTGATATTTTCTCTGATCATAGTCAGACCAACATTGCTACGACCCGTATTCGCACCGACAC | -0.313 ± 0.23 | -0.245 ± 0.3 |
| ACATTTGTTGATACAACCATAAAGTGATATTTACACCCATAAATTGATAATTATCACAACCATATATTGATATCTCCTCTGATCATAGTCAGACCAACATTGCTACGACCCGTATTCGCACCGACAC | -0.382 ± 0.084 | -0.0754 ± 0.42 |
| ACATTTGTTGATACAACCATAAAGTGATATTTACACCCATAAATTGATAATTATCACACCCATAAATTGATAATTACTCTGATCATAGTCAGACCAACATTGCTACGACCCGTATTCGCACCGACAC | 0.112 ± 0.071 | -0.191 ± 0.54 |
| ACATTTGTTGATACAACCATAAAGTGATATTTACACCCATAAATTGATAATTATCACACCCATAAATTGATATTGCCTCTGATCATAGTCAGACCAACATTGCTACGACCCGTATTCGCACCGACAC | -0.207 ± 0.081 | -0.336 ± 0.44 |
| ACATTTGTTGATACAACCATAAAGTGATATTTACACCCATAAATTGATAATTATCAGTGGGTATTTAACTATAACGCTCTGATCATAGTCAGACCAACATTGCTACGACCCGTATTCGCACCGACAC | -0.826 ± 0.22 | 2.57 ± 0.054 |
| ACATTTGTTGATACAACCATAAAGTGATATTTACACCCATAAATTGATATTGCTCACAACCATAAAATGATAATTACTCTGATCATAGTCAGACCAACATTGCTACGACCCGTATTCGCACCGACAC | -0.254 ± 0.19 | 0.169 ± 0.17 |
| ACATTTGTTGATACAACCATAAAGTGATATTTACACCCATAAATTGATATTGCTCACAACCATAAAGTGATATTTACTCTGATCATAGTCAGACCAACATTGCTACGACCCGTATTCGCACCGACAC | -0.237 ± 0.17 | 0.171 ± 0.15 |
| ACATTTGTTGATACAACCATAAAGTGATATTTACACCCATAAATTGATATTGCTCACAACCATAAGTTGATATTTTCTCTGATCATAGTCAGACCAACATTGCTACGACCCGTATTCGCACCGACAC | -0.138 ± 0.13 | 0.0642 ± 0.26 |
| ACATTTGTTGATACAACCATAAAGTGATATTTACACCCATAAATTGATATTGCTCACAACCATATATTGATATCTCCTCTGATCATAGTCAGACCAACATTGCTACGACCCGTATTCGCACCGACAC | -0.534 ± 0.18 | 0.671 ± 0.21 |
| ACATTTGTTGATACAACCATAAAGTGATATTTACACCCATAAATTGATATTGCTCACACCCATAAATTGATAATTACTCTGATCATAGTCAGACCAACATTGCTACGACCCGTATTCGCACCGACAC | -0.232 ± 0.12 | 0.595 ± 0.26 |
| ACATTTGTTGATACAACCATAAAGTGATATTTACACCCATAAATTGATATTGCTCACACCCATAAATTGATATTGCCTCTGATCATAGTCAGACCAACATTGCTACGACCCGTATTCGCACCGACAC | -0.333 ± 0.062 | 0.438 ± 0.27 |
| ACATTTGTTGATACAACCATAAAGTGATATTTACACCCATAAATTGATATTGCTCAGTGGGTATTTAACTATAACGCTCTGATCATAGTCAGACCAACATTGCTACGACCCGTATTCGCACCGACAC | -0.797 ± 0.16 | 2.56 ± 0.28 |
| ACATTTGTTGATACAACCATAAATACTTAATTACACCCATAAATTGATAATTATCACACCCATAAATTGATATTGCCTCTGATCATAGTCAGACCAACATTGCTACGACCCGTATTCGCACCGACAC | -2.25 ± 0.17 | -2.42 ± 0.21 |
| ACATTTGTTGATACAACCATAAATAGATAATTACACCCATAAATTGATAATTATCACACCCATAAATTGATATTGCCTCTGATCATAGTCAGACCAACATTGCTACGACCCGTATTCGCACCGACAC | -0.642 ± 0.046 | -0.506 ± 0.44 |
| ACATTTGTTGATACAACCATAAATTGATAATTACACCCATAAAATGATAATTATCACACCCATAAAATGATATTGCCTCTGATCATAGTCAGACCAACATTGCTACGACCCGTATTCGCACCGACAC | -0.12 ± 0.2 | -0.368 ± 0.16 |
